Laboratory results as given in article PMC3271384 (Molecular Genetics and Metabolism, 2012).

What was measured:
[1] = substrate: O=CC(=O)O; test: spectrophotometric assay of pyruvate, coupled lactate dehydrogenase; format: biochemical, Homo sapiens; settings: saturating L-alanine as co-substrate; saturating PLP
dynamic light scattering = target: the molecule itself; test: dynamic light scattering
[2] = substrate: C[C@H](N)C(=O)O; test: spectrophotometric assay of pyruvate, coupled lactate dehydrogenase; format: biochemical, Homo sapiens; settings: saturating glyoxylate as co-substrate; saturating PLP

Row | Protein | stoichiometry N (dynamic light scattering) | also measured
1 | AGT-Mi (Homo sapiens; G161S/I340M/P11L) (protein) MASHKLLVTPLKALLKPLSIPNQLLLGPGPSNLPPRIMAAGGLQMIGSMSKDMYQIMDEIKEGIQYVFQTRNPLTLVISGSGHCALEAALVNVLEPGDSFLVGANGIWGQRAVDIGERIGARVHPMTKDPGGHYTLQEVEEGLAQHKPVLLFLTHGESSTSVLQPLDGFGELCHRYKCLLLVDSVASLGGTPLYMDRQGIDILYSGSQKALNAPPGTSLISFSDKAKKKMYSRKTKPFSFYLDIKWLANFWGCDDQPRMYHHTIPVISLYSLRESLALIAEQGLENSWRQHREAAAYLHGRLQALGLQLFVKDPALRLPTVTTVAVPAGYDWRDIVSYVMDHFDIEIMGGLGPSTGKVLRIGLLGCNATRENVDRVTEALRAALQHCPKKKL |  | Km [1]: 630 ± 70 µM; kcat [1]: 58 ± 2 s⁻¹; kcat/Km [1]: 92000 ± 2000 M⁻¹ s⁻¹
2 | alanine:glyoxylate aminotransferase variant G161C on the minor allele (enzyme, human, UniProt P21549 1-392, looked up, holo-form: pyridoxal 5'-phosphate in Schiff base linkage with the lysine at position 209; apo-form: without PLP) MASHKLLVTPLKALLKPLSIPNQLLLGPGPSNLPPRIMAAGGLQMIGSMSKDMYQIMDEIKEGIQYVFQTRNPLTLVISGSGHCALEAALVNVLEPGDSFLVGANGIWGQRAVDIGERIGARVHPMTKDPGGHYTLQEVEEGLAQHKPVLLFLTHGESSTCVLQPLDGFGELCHRYKCLLLVDSVASLGGTPLYMDRQGIDILYSGSQKALNAPPGTSLISFSDKAKKKMYSRKTKPFSFYLDIKWLANFWGCDDQPRMYHHTIPVISLYSLRESLALIAEQGLENSWRQHREAAAYLHGRLQALGLQLFVKDPALRLPTVTTVAVPAGYDWRDIVSYVMDHFDIEIMGGLGPSTGKVLRIGLLGCNATRENVDRVTEALRAALQHCPKKKL | 2 | 
3 | alanine:glyoxylate aminotransferase variant S187F on the major allele (enzyme, human, UniProt P21549 1-392, looked up, holo-form: pyridoxal 5'-phosphate in Schiff base linkage with the lysine at position 209; apo-form: without PLP) MASHKLLVTPPKALLKPLSIPNQLLLGPGPSNLPPRIMAAGGLQMIGSMSKDMYQIMDEIKEGIQYVFQTRNPLTLVISGSGHCALEAALVNVLEPGDSFLVGANGIWGQRAVDIGERIGARVHPMTKDPGGHYTLQEVEEGLAQHKPVLLFLTHGESSTGVLQPLDGFGELCHRYKCLLLVDSVAFLGGTPLYMDRQGIDILYSGSQKALNAPPGTSLISFSDKAKKKMYSRKTKPFSFYLDIKWLANFWGCDDQPRMYHHTIPVISLYSLRESLALIAEQGLENSWRQHREAAAYLHGRLQALGLQLFVKDPALRLPTVTTVAVPAGYDWRDIVSYVIDHFDIEIMGGLGPSTGKVLRIGLLGCNATRENVDRVTEALRAALQHCPKKKL | 2 | 
4 | alanine:glyoxylate aminotransferase variant G350D on the minor allele (enzyme, human, UniProt P21549 1-392, looked up, holo-form: pyridoxal 5'-phosphate in Schiff base linkage with the lysine at position 209; apo-form: without PLP) MASHKLLVTPLKALLKPLSIPNQLLLGPGPSNLPPRIMAAGGLQMIGSMSKDMYQIMDEIKEGIQYVFQTRNPLTLVISGSGHCALEAALVNVLEPGDSFLVGANGIWGQRAVDIGERIGARVHPMTKDPGGHYTLQEVEEGLAQHKPVLLFLTHGESSTGVLQPLDGFGELCHRYKCLLLVDSVASLGGTPLYMDRQGIDILYSGSQKALNAPPGTSLISFSDKAKKKMYSRKTKPFSFYLDIKWLANFWGCDDQPRMYHHTIPVISLYSLRESLALIAEQGLENSWRQHREAAAYLHGRLQALGLQLFVKDPALRLPTVTTVAVPAGYDWRDIVSYVMDHFDIEIMGDLGPSTGKVLRIGLLGCNATRENVDRVTEALRAALQHCPKKKL | 2 | 
5 | alanine:glyoxylate aminotransferase variant S218L on the major allele (enzyme, human, UniProt P21549 1-392, looked up, holo-form: pyridoxal 5'-phosphate in Schiff base linkage with the lysine at position 209; apo-form: without PLP) MASHKLLVTPPKALLKPLSIPNQLLLGPGPSNLPPRIMAAGGLQMIGSMSKDMYQIMDEIKEGIQYVFQTRNPLTLVISGSGHCALEAALVNVLEPGDSFLVGANGIWGQRAVDIGERIGARVHPMTKDPGGHYTLQEVEEGLAQHKPVLLFLTHGESSTGVLQPLDGFGELCHRYKCLLLVDSVASLGGTPLYMDRQGIDILYSGSQKALNAPPGTLLISFSDKAKKKMYSRKTKPFSFYLDIKWLANFWGCDDQPRMYHHTIPVISLYSLRESLALIAEQGLENSWRQHREAAAYLHGRLQALGLQLFVKDPALRLPTVTTVAVPAGYDWRDIVSYVIDHFDIEIMGGLGPSTGKVLRIGLLGCNATRENVDRVTEALRAALQHCPKKKL | 2 | 
6 | alanine:glyoxylate aminotransferase variant D183N on the major allele (enzyme, human, UniProt P21549 1-392, looked up, holo-form: pyridoxal 5'-phosphate in Schiff base linkage with the lysine at position 209; apo-form: without PLP) MASHKLLVTPPKALLKPLSIPNQLLLGPGPSNLPPRIMAAGGLQMIGSMSKDMYQIMDEIKEGIQYVFQTRNPLTLVISGSGHCALEAALVNVLEPGDSFLVGANGIWGQRAVDIGERIGARVHPMTKDPGGHYTLQEVEEGLAQHKPVLLFLTHGESSTGVLQPLDGFGELCHRYKCLLLVNSVASLGGTPLYMDRQGIDILYSGSQKALNAPPGTSLISFSDKAKKKMYSRKTKPFSFYLDIKWLANFWGCDDQPRMYHHTIPVISLYSLRESLALIAEQGLENSWRQHREAAAYLHGRLQALGLQLFVKDPALRLPTVTTVAVPAGYDWRDIVSYVIDHFDIEIMGGLGPSTGKVLRIGLLGCNATRENVDRVTEALRAALQHCPKKKL | 2 | 
7 | alanine:glyoxylate aminotransferase variant P319L on the major allele (enzyme, human, UniProt P21549 1-392, looked up, holo-form: pyridoxal 5'-phosphate in Schiff base linkage with the lysine at position 209; apo-form: without PLP) MASHKLLVTPPKALLKPLSIPNQLLLGPGPSNLPPRIMAAGGLQMIGSMSKDMYQIMDEIKEGIQYVFQTRNPLTLVISGSGHCALEAALVNVLEPGDSFLVGANGIWGQRAVDIGERIGARVHPMTKDPGGHYTLQEVEEGLAQHKPVLLFLTHGESSTGVLQPLDGFGELCHRYKCLLLVDSVASLGGTPLYMDRQGIDILYSGSQKALNAPPGTSLISFSDKAKKKMYSRKTKPFSFYLDIKWLANFWGCDDQPRMYHHTIPVISLYSLRESLALIAEQGLENSWRQHREAAAYLHGRLQALGLQLFVKDPALRLLTVTTVAVPAGYDWRDIVSYVIDHFDIEIMGGLGPSTGKVLRIGLLGCNATRENVDRVTEALRAALQHCPKKKL | 2 | 
8 | alanine:glyoxylate aminotransferase variant W108R on the minor allele (enzyme, human, UniProt P21549 1-392, looked up, holo-form: pyridoxal 5'-phosphate in Schiff base linkage with the lysine at position 209; apo-form: without PLP) MASHKLLVTPLKALLKPLSIPNQLLLGPGPSNLPPRIMAAGGLQMIGSMSKDMYQIMDEIKEGIQYVFQTRNPLTLVISGSGHCALEAALVNVLEPGDSFLVGANGIRGQRAVDIGERIGARVHPMTKDPGGHYTLQEVEEGLAQHKPVLLFLTHGESSTGVLQPLDGFGELCHRYKCLLLVDSVASLGGTPLYMDRQGIDILYSGSQKALNAPPGTSLISFSDKAKKKMYSRKTKPFSFYLDIKWLANFWGCDDQPRMYHHTIPVISLYSLRESLALIAEQGLENSWRQHREAAAYLHGRLQALGLQLFVKDPALRLPTVTTVAVPAGYDWRDIVSYVMDHFDIEIMGGLGPSTGKVLRIGLLGCNATRENVDRVTEALRAALQHCPKKKL | 2 | 
9 | AGT-Ma (Homo sapiens; P319L) (protein) MASHKLLVTPPKALLKPLSIPNQLLLGPGPSNLPPRIMAAGGLQMIGSMSKDMYQIMDEIKEGIQYVFQTRNPLTLVISGSGHCALEAALVNVLEPGDSFLVGANGIWGQRAVDIGERIGARVHPMTKDPGGHYTLQEVEEGLAQHKPVLLFLTHGESSTGVLQPLDGFGELCHRYKCLLLVDSVASLGGTPLYMDRQGIDILYSGSQKALNAPPGTSLISFSDKAKKKMYSRKTKPFSFYLDIKWLANFWGCDDQPRMYHHTIPVISLYSLRESLALIAEQGLENSWRQHREAAAYLHGRLQALGLQLFVKDPALRLLTVTTVAVPAGYDWRDIVSYVIDHFDIEIMGGLGPSTGKVLRIGLLGCNATRENVDRVTEALRAALQHCPKKKL |  | Km [1]: 110 ± 20 µM; kcat [1]: 26.2 ± 0.7 s⁻¹; kcat/Km [1]: 238000 ± 44000 M⁻¹ s⁻¹
10 | AGT-Ma (Homo sapiens; S218L) (protein) MASHKLLVTPPKALLKPLSIPNQLLLGPGPSNLPPRIMAAGGLQMIGSMSKDMYQIMDEIKEGIQYVFQTRNPLTLVISGSGHCALEAALVNVLEPGDSFLVGANGIWGQRAVDIGERIGARVHPMTKDPGGHYTLQEVEEGLAQHKPVLLFLTHGESSTGVLQPLDGFGELCHRYKCLLLVDSVASLGGTPLYMDRQGIDILYSGSQKALNAPPGTLLISFSDKAKKKMYSRKTKPFSFYLDIKWLANFWGCDDQPRMYHHTIPVISLYSLRESLALIAEQGLENSWRQHREAAAYLHGRLQALGLQLFVKDPALRLPTVTTVAVPAGYDWRDIVSYVIDHFDIEIMGGLGPSTGKVLRIGLLGCNATRENVDRVTEALRAALQHCPKKKL |  | Km [2]: 29000 ± 6000 µM; kcat [2]: 2.7 ± 0.1 s⁻¹; kcat/Km [2]: 90 ± 20 M⁻¹ s⁻¹
11 | alanine:glyoxylate aminotransferase variant G161S on the minor allele (enzyme, human, UniProt P21549 1-392, looked up, holo-form: pyridoxal 5'-phosphate in Schiff base linkage with the lysine at position 209; apo-form: without PLP) MASHKLLVTPLKALLKPLSIPNQLLLGPGPSNLPPRIMAAGGLQMIGSMSKDMYQIMDEIKEGIQYVFQTRNPLTLVISGSGHCALEAALVNVLEPGDSFLVGANGIWGQRAVDIGERIGARVHPMTKDPGGHYTLQEVEEGLAQHKPVLLFLTHGESSTSVLQPLDGFGELCHRYKCLLLVDSVASLGGTPLYMDRQGIDILYSGSQKALNAPPGTSLISFSDKAKKKMYSRKTKPFSFYLDIKWLANFWGCDDQPRMYHHTIPVISLYSLRESLALIAEQGLENSWRQHREAAAYLHGRLQALGLQLFVKDPALRLPTVTTVAVPAGYDWRDIVSYVMDHFDIEIMGGLGPSTGKVLRIGLLGCNATRENVDRVTEALRAALQHCPKKKL | 2 | 
12 | alanine:glyoxylate aminotransferase variant S158L on the major allele (enzyme, human, UniProt P21549 1-392, looked up, holo-form: pyridoxal 5'-phosphate in Schiff base linkage with the lysine at position 209; apo-form: without PLP) MASHKLLVTPPKALLKPLSIPNQLLLGPGPSNLPPRIMAAGGLQMIGSMSKDMYQIMDEIKEGIQYVFQTRNPLTLVISGSGHCALEAALVNVLEPGDSFLVGANGIWGQRAVDIGERIGARVHPMTKDPGGHYTLQEVEEGLAQHKPVLLFLTHGELSTGVLQPLDGFGELCHRYKCLLLVDSVASLGGTPLYMDRQGIDILYSGSQKALNAPPGTSLISFSDKAKKKMYSRKTKPFSFYLDIKWLANFWGCDDQPRMYHHTIPVISLYSLRESLALIAEQGLENSWRQHREAAAYLHGRLQALGLQLFVKDPALRLPTVTTVAVPAGYDWRDIVSYVIDHFDIEIMGGLGPSTGKVLRIGLLGCNATRENVDRVTEALRAALQHCPKKKL | 2 | 
